Key:
[1] = biological target: human Toll-like receptor 5 on HEK293^TLR5 reporter cells (human) (UniProt O60602)
[2] = biological target: rTLR5^N14-Avitag, biotinylated (zebrafish | hagfish) (UniProt B3DIN1); experiment: ELISA; competitive binding assay: 96-well plates coated with 0.2 μg/ml bsflagellin in PBS; serially diluted soluble flagellin and 0.02 μg/ml biotinylated rTLR5^N14-Avitag incubated together for 48 hours at 4 °C in 1% BSA in PBS-T; detected with HRP-streptavidin
[3] = biological target: human Toll-like receptor 5 on HEK293^TLR5 reporter cells (human) (UniProt O60602); remark: listed apart in the source
[4] = biological target: rTLR5^N14, tag-free (zebrafish TLR5 LRRNT-LRR14 fused to the C-terminal fragment of hagfish variable lymphocyte receptor) (zebrafish | hagfish) (UniProt B3DIN1); experiment: crystal structure; bsflagellin^cent-rTLR5^N14 complex, 2.1 Å; crystallised in 17.5% (w/v) PEG 300, 50 mM sodium acetate, pH 4.4 at 18 °C
[5] = biological target: rTLR5^N14, tag-free (zebrafish TLR5 LRRNT-LRR14 fused to the C-terminal fragment of hagfish variable lymphocyte receptor) (zebrafish | hagfish) (UniProt B3DIN1); experiment: SEC; purified flagellin and rTLR5^N14 incubated at 18 °C for 30 minutes; Superdex 200 10/300 column; elution monitored at 222 nm
[6] = biological target: rTLR5^N14, tag-free (zebrafish TLR5 LRRNT-LRR14 fused to the C-terminal fragment of hagfish variable lymphocyte receptor) (zebrafish | hagfish) (UniProt B3DIN1); experiment: native gel or EMSA; purified flagellin and rTLR5^N14 incubated at 18 °C for 30 minutes; native PAGE on 6% polyacrylamide gels at room temperature for 1.5 hours at 100 V
[7] = biological target: human Toll-like receptor 5 on HEK293^TLR5 reporter cells (human) (UniProt O60602); remark: listed apart in the source

Sequence of UniProt O60602 (O60602 21-858): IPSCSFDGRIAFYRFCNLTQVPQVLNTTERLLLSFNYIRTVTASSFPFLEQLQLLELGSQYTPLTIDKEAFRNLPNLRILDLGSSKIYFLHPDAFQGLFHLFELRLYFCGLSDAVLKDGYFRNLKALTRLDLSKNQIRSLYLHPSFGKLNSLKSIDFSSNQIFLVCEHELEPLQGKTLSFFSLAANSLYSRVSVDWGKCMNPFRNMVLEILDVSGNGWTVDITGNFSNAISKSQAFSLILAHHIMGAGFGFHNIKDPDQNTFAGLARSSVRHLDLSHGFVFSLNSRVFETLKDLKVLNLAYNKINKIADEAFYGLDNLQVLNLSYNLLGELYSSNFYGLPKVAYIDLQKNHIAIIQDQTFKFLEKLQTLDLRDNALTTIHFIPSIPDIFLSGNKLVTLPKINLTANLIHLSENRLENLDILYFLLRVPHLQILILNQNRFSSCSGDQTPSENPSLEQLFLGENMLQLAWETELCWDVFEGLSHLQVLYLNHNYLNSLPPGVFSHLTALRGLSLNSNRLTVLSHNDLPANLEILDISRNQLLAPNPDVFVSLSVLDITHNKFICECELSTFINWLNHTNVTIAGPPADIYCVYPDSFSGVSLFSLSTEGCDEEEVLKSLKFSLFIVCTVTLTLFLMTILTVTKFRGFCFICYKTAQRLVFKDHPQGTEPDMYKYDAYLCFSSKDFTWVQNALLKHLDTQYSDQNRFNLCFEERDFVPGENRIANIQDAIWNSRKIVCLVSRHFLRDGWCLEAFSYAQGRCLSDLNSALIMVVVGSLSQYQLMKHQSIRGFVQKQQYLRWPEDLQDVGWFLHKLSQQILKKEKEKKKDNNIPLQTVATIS

| Substance | EC50 (pM) for TLR5 signaling; NF-κB-inducible SEAP reporter in HEK293^TLR5 cells [1] [pM] | IC50 [2] [nM] | also measured |
| --- | --- | --- | --- |
| Salmonella enterica subspecies enterica serovar Dublin flagellin, full length (from UniProt Q06971 1-505) (natural protein) | 0.57 | 0.289 | – |
| Shigella flexneri flagellin, full length (from UniProt Q08860 1-550) (natural protein) | 1.57 | 0.414 | – |
| Escherichia coli flagellin, full length (from UniProt P04949 1-498) (natural protein) | 1.13 | 0.517 | – |
| bsflagellin E114A mutant (from UniProt P02968 1-304) (natural protein) | – | – | TLR5 activity in the HEK293^TLR5 reporter cell assay, fold reduction against bsflagellin^WT [3]: 6 fold |
| central region of bsflagellin (bsflagellin^cent; D1 residues 54-230) (from UniProt P02968 54-230) (domain or fragment) | – | – | stoichiometry N [4]: 1 |
| Bacillus subtilis flagellin (Hag), full-length wild type (from UniProt P02968 1-304) (natural protein) | 1.18 | 0.204 | stoichiometry N [5]: 1; stoichiometry N [6]: 1 |
| bsflagellin L93A mutant (from UniProt P02968 1-304) (natural protein) | – | – | TLR5 activity in the HEK293^TLR5 reporter cell assay, fold reduction against bsflagellin^WT [3]: 2 fold |
| Pseudomonas aeruginosa flagellin, full length (from UniProt P21184 1-394) (natural protein) | 1.68 | 0.673 | – |
| bsflagellin R89A mutant (from UniProt P02968 1-304) (natural protein) | – | – | HEK293^TLR5 reporter cell activity, fold change of EC50 against bsflagellin^WT [7]: 49 fold; fold lower activity in the competitive rTLR5^N14-binding assay [2]: 10 fold |

Reference: publication PMC5247705
